The text below walks through data of US20260022160A1 (AFFYXELL THERAPEUTICS, published 2026).

Assay [1] deals with T1, human CD40L (human, UniProt P29965 113-261, limits assumed).
T1 sequence (looked up): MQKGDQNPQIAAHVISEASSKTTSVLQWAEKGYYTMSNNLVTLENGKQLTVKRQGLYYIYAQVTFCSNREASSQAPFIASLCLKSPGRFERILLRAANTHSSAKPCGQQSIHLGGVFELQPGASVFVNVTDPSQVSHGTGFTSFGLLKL
Briefly: cell-based or functional assay.

In assay [2] the target is T1, human CD40L. Briefly: ELISA on plate-coated hCD40L, no HSA, detection with anti-cystatin antibody, OD 450-630 nm. Here is the method:
After a last washing step, TMB was added for the development of the experiment and the plates were read at 450 nm. The EC50 was then calculated using the interpolated non-linear four-parameters standard curve (FIG. 12C).

The target in assay [3] is T1, human CD40L. Briefly: bridging ELISA: capture on plate-coated hCD40L, HSA 10 uM, detection with anti-HSA antibody, OD 450-630 nm. Here is the method:
(§1) After saturation with 5% casein/PBS buffer, the plates were washed and a dilution of Stefin A protein variant or controls was incubated with HSA at a final concentration of 10 μM for 90 minutes. Plates were then washed, and a […], anti-HSA (HRP-conjugated) (Abcam), was added for 90 minutes. After a last washing step, TMB was added for the development of the experiment and the plates were read at 450 nm. The EC50 was then calculated using the interpolated non-linear four-parameters standard curve (FIG. 12C).
For orientation: ELISA stands for enzyme-linked immunosorbent assay.

The target in assay [4] is T1, human CD40L. Description: ELISA on plate-coated hCD40L in the presence of HSA (10 uM), detection with anti-cystatin antibody, OD 450-630 nm.
Assay [5] concerns the target T1, human CD40L. Description: competitive ELISA: hCD40L (1 nM) premixed with the binder and added to plate-coated rhCD40 Fc; bound hCD40L detected with biotinylated anti-hCD40L polyclonal antibody. Here is the method: To evaluate the avidity of the different formats, a CD40L competitive ELISA was performed. Briefly, the plates were coated with rhCD40 Fc at 1 μg/ml and incubated overnight at 4° C. The plates were washed twice with 150 μl of washing buffer (PBS, Tween 20 0.1%) with a plate washer and saturated with Casein 5% (Sigma) in PBS for 90 minutes at room temperature (25±1° C.). […] The resulting solution was then mixed and added to the plates. The plates were washed 3 times as described previously. […] The plates were incubated for 90 minutes at room temperature (25±1° C.). The plates were then washed. PolyHRP-Streptavidin was then diluted in dilution buffer and added to the plates. The plates were incubated an additional 90 minutes at room temperature (25±1° C.). Plates were washed 3 times as described previously and the substrate (TMB, Pierce Thermo-Scientific) was added in the plate for 10 minutes. The reaction was stopped using an acidic solution and the plates were read at 450-630 nm and the resulting percent inhibition was calculated.

The target in assay [6] is T2, human CD40L expressed on HEK293 cells (human, UniProt P29965 1-261).
T2 construct: whole, on cells; also called hCD40L-HEK293 cells; hCD40L-HEK-293 cells (Crown Biosciences, C2041)
T2 sequence (looked up): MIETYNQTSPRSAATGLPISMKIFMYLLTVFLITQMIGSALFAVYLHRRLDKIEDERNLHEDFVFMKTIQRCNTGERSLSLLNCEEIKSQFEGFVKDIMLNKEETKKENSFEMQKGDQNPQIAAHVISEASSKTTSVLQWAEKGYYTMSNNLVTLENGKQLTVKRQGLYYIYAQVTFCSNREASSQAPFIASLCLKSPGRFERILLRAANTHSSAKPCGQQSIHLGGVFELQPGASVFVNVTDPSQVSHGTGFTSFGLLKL
Description: flow cytometry, clone at 1 uM on hCD40L-HEK293 cells (hatched), HEK-293 negative cells as control (open), detection anti-Cystatin A + A488 anti-goat. Here is the method:
The cells were resuspended in PBS and 200,000 cells per well were dispatched in a round bottom 96 well plate. Cells were washed with PBS. The stefin A protein variant and controls were diluted in staining buffer containing 1% BSA, 0.01% Sodium Azide (NaN3), 2 mM EDTA in DPBS in duplicate and added on cells for staining for approximately 60 min at 4±1° c. Cells were washed and the secondary anti-Cystatin A (R&D, AF1407) was diluted 0.2 mg/ml in staining buffer and added on cells for staining for approximately 45 min at 4±1° c. Cells were washed again and the detection antibody A488 anti-goat (ThermoFisher, A21467) was diluted 1:500 in staining buffer and added to the cells for staining (approximately 30 min at 4±1° C.). Finally, the cells were washed and live and dead cells were stained using L/D stain Zombie Yellow (Biolegend, 423103) diluted in staining buffer for 10 min at 4±1° C. Cells were washed again and fixation buffer (R&D) was added to each well for 10 min at 4±1° C. then PBS with EDTA (Lonza) was added prior reading the plate on the flow cytometer (Guava 12 HT, Millipore). Dead cells were excluded, and the fluorescent green channel (488 nm/525/30) was acquired. Results were analyzed using Incyte and data were plotted using GraphPad.

The target of assay [7] is T1, human CD40L. Briefly: direct binding ELISA on plate-coated hCD40L (5 ug/ml), detection biotinylated anti-cystatin A antibody + polyHRP-streptavidin, OD 450-630 nm; the table prints 268, the curve legend prints Clone -288 in its place. Here is the method: Plates were washed 2 times with 150 μl of washing buffer (PBS, Tween 20 0.1%) with a plate washer and saturated with Casein 5% (Sigma) in PBS for 90 minutes at room temperature (25±1° C.). For binding, each DAW01 clone and rhCD40 Fc were added to the plate, starting from 1 μM, 1 in 3 and 300 nM, 1 in 3 respectively. Plates were washed 3 times as described previously. […] Then, cystatin A biotinylated polyclonal antibody (BAF1407) was diluted to a concentration of 0.05 μg/ml in dilution buffer (PBS, 1% casein, 0.01% Tween 20) and the plate was incubated for 90 minutes at room temperature (25±1° C.). PolyHRP-streptavidin was then diluted in dilution buffer and the plates were incubated for 90 minutes at room temperature (25±1° C.). The plates were then washed 3 times as described previously, and the substrate (TMB, Pierce Thermo-Scientific) was added to the plates for 10 minutes. The reaction was stopped using an acidic solution, and plates were read at 450-630 nm.

In a further assay the target is T3, human serum albumin (human, UniProt P02768 25-609).
T3 construct: also called HSA
T3 sequence (P02768 25-609): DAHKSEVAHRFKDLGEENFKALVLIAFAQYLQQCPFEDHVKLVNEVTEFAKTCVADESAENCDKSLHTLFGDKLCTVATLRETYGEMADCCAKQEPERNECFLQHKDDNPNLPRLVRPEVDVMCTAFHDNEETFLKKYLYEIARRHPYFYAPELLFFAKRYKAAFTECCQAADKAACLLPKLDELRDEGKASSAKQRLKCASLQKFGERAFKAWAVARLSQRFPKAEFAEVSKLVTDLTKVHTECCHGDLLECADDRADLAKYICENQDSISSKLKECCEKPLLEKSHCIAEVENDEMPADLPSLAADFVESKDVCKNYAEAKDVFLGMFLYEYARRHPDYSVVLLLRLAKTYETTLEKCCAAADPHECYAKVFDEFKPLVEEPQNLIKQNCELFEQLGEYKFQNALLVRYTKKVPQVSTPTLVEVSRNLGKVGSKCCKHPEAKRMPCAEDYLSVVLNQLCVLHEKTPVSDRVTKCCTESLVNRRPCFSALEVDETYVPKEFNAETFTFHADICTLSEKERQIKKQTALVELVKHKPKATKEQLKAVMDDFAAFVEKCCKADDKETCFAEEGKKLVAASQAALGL
Description: bridging ELISA: binder captured on plate-coated hCD40L, HSA 10 uM, bound HSA detected with anti-HSA antibody. Here is the method: as §1

B1: clone-230 XT76 (tetramer with a rigid linker and an HSA binding stefin A protein variant) (designed binder)
chain: IPGGLSEAKPATPEIQEIVDKVKPQLEEKTGETYGKLEAVQYKTQVVHYYVHYNDQGTNYYIKVRAGDNKYMHLKVFKSLWGENLFAKWEDLVLTGYQVDKNKDDELTGFAEAAAKEAAAKEAAAKEAAAKEAAAKEAAAKMIPGGLSEAKPATPEIQEIVDKVKPQLEEKTGETYGKLEAVQYKTQVVHYYVHYNDQGTNYYIKVRAGDNKYMHLKVFKSLWGENLFAKWEDLVLTGYQVDKNKDDELTGFAEAAAKEAAAKEAAAKEAAAKEAAAKEAAAKMIPGGLSEAKPATPEIQEIVDKVKPQLEEKTGETYGKLEAVQYKTQVVHYYVHYNDQGTNYYIKVRAGDNKYMHLKVFKSLWGENLFAKWEDLVLTGYQVDKNKDDELTGFAEAAAKEAAAKEAAAKEAAAKEAAAKEAAAKMIPGGLSEAKPATPEIQEIVDKVKPQLEEKTGETYGKLEAVQYKTQVVHYYVHYNDQGTNYYIKVRAGDNKYMHLKVFKSLWGENLFAKWEDLVLTGYQVDKNKDDELTGFAEAAAKEAAAKEAAAKEAAAKEAAAKEAAAKMIPRGLSEAKPATPEIQEIVDKVKPQLEEKTGETYGKLEAVQYKTQVLANFFQRRWPGSTNYYIKVRAGDNKYMHLKVFNGPWKFRNTDRGADRVLTGYQVDKNKDDELTGF
The term EC50 denotes the concentration that produces a half-maximal response. For B1, the figures for the “IC50 (read off the curve)” value with human CD40L [1] and with human CD40L [5] were roughly 2 nM and roughly 3 nM, respectively. Further, the EC50 in the assay with human CD40L [2] was 0.07 nM; with human CD40L [3] it was 0.8 nM; with human CD40L [4] it was 0.1 nM.

B2: stefin A protein variant clone 268 (designed binder)
chain: MIPGGLSEAKPATPEIQEIVDKVKPQLEEKTGETYGKLEAVQYKTQVVGDSYWEYVSGTNYYIKVRAGDNKYMHLKVFKSLPYRWRPDHAEDLVLTGYQVDKNKDDELTGF
In the case of B2, in assay [6], the “% Positive” value was 95.7% and the MFI stood at 7780 MFI. Moreover, the EC50 in the assay with human CD40L [7] came out at 31.2 nM.

B3: clone-230 XT75 (trimer with a rigid linker and an HSA binding stefin A protein variant) (designed binder)
chain: IPGGLSEAKPATPEIQEIVDKVKPQLEEKTGETYGKLEAVQYKTQVVHYYVHYNDQGTNYYIKVRAGDNKYMHLKVFKSLWGENLFAKWEDLVLTGYQVDKNKDDELTGFAEAAAKEAAAKEAAAKEAAAKEAAAKEAAAKMIPGGLSEAKPATPEIQEIVDKVKPQLEEKTGETYGKLEAVQYKTQVVHYYVHYNDQGTNYYIKVRAGDNKYMHLKVFKSLWGENLFAKWEDLVLTGYQVDKNKDDELTGFAEAAAKEAAAKEAAAKEAAAKEAAAKEAAAKMIPGGLSEAKPATPEIQEIVDKVKPQLEEKTGETYGKLEAVQYKTQVVHYYVHYNDQGTNYYIKVRAGDNKYMHLKVFKSLWGENLFAKWEDLVLTGYQVDKNKDDELTGFAEAAAKEAAAKEAAAKEAAAKEAAAKEAAAKMIPRGLSEAKPATPEIQEIVDKVKPQLEEKTGETYGKLEAVQYKTQVLANFFQRRWPGSTNYYIKVRAGDNKYMHLKVFNGPWKFRNTDRGADRVLTGYQVDKNKDDELTGF
notes: also called AFX01-230 XT75
On to B3, for which the “IC50 (read off the curve)” value with human CD40L [1] is roughly 8 nM; with human CD40L [5], roughly 4 nM. In addition, the EC50 with human CD40L [2] stood at 0.02 nM; with human CD40L [3], 0.41 nM; with human CD40L [4], 0.04 nM. Further, in the assay with human serum albumin, the binding result is reported as “binds”.
